# Literature values, collected in PMC4074225.
# Target: PCNA (Homo sapiens) (UniProt P12004)
# Test: SPR
# UniProt P12004, sequence (P12004 whole entry): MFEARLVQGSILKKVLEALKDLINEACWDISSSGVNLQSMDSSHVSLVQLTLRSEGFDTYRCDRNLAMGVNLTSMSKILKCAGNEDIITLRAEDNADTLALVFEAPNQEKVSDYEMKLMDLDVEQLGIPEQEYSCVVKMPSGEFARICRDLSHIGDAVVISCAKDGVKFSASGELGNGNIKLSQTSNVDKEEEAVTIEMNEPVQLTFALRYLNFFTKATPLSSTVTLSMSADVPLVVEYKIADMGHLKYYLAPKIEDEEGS
substance,measurement,value
DNA polymerase eta 694-713 (from UniProt Q9Y253),Kd,400 nM
